Experimental data: paper PMC6791870, “Switch of the interactions between the ribosomal stalk and EF1A in the GTP- and GDP-bound conformations” (Scientific Reports, 2019)
Primed or numbered codes have the meaning given here. Where no end group is shown, it is not given here. FITC′ = fluorescein isothiocyanate label

B1: Aeropyrum pernix aPelota (ApePelota) (natural protein, A. pernix, UniProt Q9YAZ5 1-356, looked up)
chain: MRVEVLDNKRRIVRLRPESEEDLWLLRITLRPGDVVRIRTSRDVPVGSGRKERVVMTLRIRLDSIEFQPFTGKLRISGIVVEGPDEFGVKGRRHSTAVSIGTWLVVERDKGWSEQELERLASGRARGTAVIAAVDYDEFALAVLAGHGMKILEDTSARLPGKDDPSREQEVEKYVDRAAKRIVEEAARHRSPIAVIAGPGQLKTSVAEKVQRAMPSLKVATVDTSMGGVAGVREALRRESVTRILRELSIVEAEGVLEEFLRRIAKSRDTVAYTPGEVLAVARMGAVDTVLLVDTLLHSPDDAVREAVDEALRLVESMGGRVIIIPGDSPAGERLVSFGGVIALLRYPVPQEARRL
notes: aPelota of Aeropyrum pernix
B2: Pyrococcus furiosus aPelota (PfuPelota) (natural protein, UniProt Q8U150 1-356, looked up)
chain: MEILEEKPKEGKIKIKAETLDDLWHLYHIISEGDVVYAKTLRKQAQRSDSLRPEKVEAVPVFLGIKAEKINLHRFANQLRITGPIIYASREDVPLGRYHTLTVEPGTVITIQKEKWKNYHIERLKEAIESSKKARVMIVAIEDGEAEIAIVREYGLDFVGSITYNISGKRYNIKRDDEEKKFFHEVAKSMEELMKRENIEKAIVAGPGFYKENFVNFLRENYPELAKKVVTDDTSMGGRTGIYEVIKRGTVDKVYTESRISKEIKLVEKVIEEIAKNGLVAYGLKEVEEATNYGAVETLIVLDSLLKGELREKIEELMELARNLRASVVVVSSEHEGGDKLKALGGIAALLRFKIK
notes: aPelota of Pyrococcus furiosus
B3: N-terminal MBP fused with the C-terminal 15 amino acid residues of A. pernix aP1 (MBP-ApeP1C15) (domain or fragment)
chain: EEEVDLSGLSGMFGF
notes: Vector pMAL-c4x, EcoRI-PstI; not shown: MBP, N-terminal, kept
B4: maltose-binding protein fused to the C-terminal 14 amino acid sequence of PhoP1 (MBP-PhoP1C14) (domain or fragment, P. horikoshii)
chain: SEEEALAGLSALFG
notes: C-terminal 14 residues of P. horikoshii ribosomal stalk protein aP1; made by removing residues 61-94 from pMAL-c4x-aP1[61-108]; the 14 residues are identical in both species; Vector pMAL-c4x; also called MBP-PfuP1C14; not shown: MBP, N-terminal, kept
B5: C-terminal 14-mer peptide of P. horikoshii aP1 (PhoP1C14), FITC-labelled (peptide)
peptide: {FITC′}-SEEEALAGLSALFG
notes: C-terminal 14 residues of P. horikoshii ribosomal stalk protein aP1 (last residues L106, F107, G108); also called WT; C-terminal peptide; source: synthetic peptide (Hokkaido System Science)
B6: C-terminal 17-mer peptide of A. pernix aP1 (ApeP1C17) (peptide)
peptide: KKEEEVDLSGLSGMFGF
notes: C-terminal 17 residues of Aeropyrum pernix ribosomal stalk protein aP1 (ends at F111); also called aP1C17; aP1-CTD; source: synthetic peptide (Hokkaido System Science)

Assays:
Details in all cases: both partners purified
[1] = target: T1, Aeropyrum pernix elongation factor aEF1A (ApeEF1A) (Aeropyrum pernix, UniProt Q9YAV0 1-437); experiment: crystal structure; ApeP1C17•ApeEF1A•GTP•ApePelota complex, sitting drop vapor diffusion at 20 °C, 3.0 Å
T1 construct: elongation factor 1-alpha (aEF1A) of Aeropyrum pernix; also called ApeEF1A•GTP; wild type ApeEF1A
T1 sequence (looked up): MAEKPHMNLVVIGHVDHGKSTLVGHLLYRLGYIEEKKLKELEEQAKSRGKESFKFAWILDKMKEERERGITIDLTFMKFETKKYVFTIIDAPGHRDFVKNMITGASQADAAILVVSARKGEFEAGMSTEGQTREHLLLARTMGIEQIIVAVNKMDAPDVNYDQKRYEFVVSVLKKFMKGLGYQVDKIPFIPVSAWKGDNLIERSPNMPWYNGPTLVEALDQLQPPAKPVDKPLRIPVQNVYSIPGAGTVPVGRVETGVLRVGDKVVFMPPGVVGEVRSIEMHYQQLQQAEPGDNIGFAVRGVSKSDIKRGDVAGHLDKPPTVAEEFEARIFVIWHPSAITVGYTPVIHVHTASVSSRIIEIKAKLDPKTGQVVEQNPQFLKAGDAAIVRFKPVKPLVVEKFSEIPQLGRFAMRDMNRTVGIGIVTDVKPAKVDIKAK

[2] = target: T2, Pyrococcus horikoshii elongation factor aEF1A (PhoEF1A) (P. horikoshii, UniProt O59153 1-428); experiment: pull-down; MBP-P1 fusion held on amylose resin; EF1A (1,000 pmol), Pelota (1,000 pmol) and equal amounts of MBP-P1 in 100 µl PD buffer (25 mM Tris-HCl pH 8.0, 200 mM NaCl, 10 mM MgCl2, 1 mM GTP), 4 °C, 90 min; eluted with 50 mM maltose; SDS-PAGE, CBB staining
T2 construct: elongation factor 1-alpha (aEF1A) of Pyrococcus horikoshii; the nucleotide is named in the assay's format; also called PhoEF1A•GTP; PhoEF1A•GDP
T2 sequence: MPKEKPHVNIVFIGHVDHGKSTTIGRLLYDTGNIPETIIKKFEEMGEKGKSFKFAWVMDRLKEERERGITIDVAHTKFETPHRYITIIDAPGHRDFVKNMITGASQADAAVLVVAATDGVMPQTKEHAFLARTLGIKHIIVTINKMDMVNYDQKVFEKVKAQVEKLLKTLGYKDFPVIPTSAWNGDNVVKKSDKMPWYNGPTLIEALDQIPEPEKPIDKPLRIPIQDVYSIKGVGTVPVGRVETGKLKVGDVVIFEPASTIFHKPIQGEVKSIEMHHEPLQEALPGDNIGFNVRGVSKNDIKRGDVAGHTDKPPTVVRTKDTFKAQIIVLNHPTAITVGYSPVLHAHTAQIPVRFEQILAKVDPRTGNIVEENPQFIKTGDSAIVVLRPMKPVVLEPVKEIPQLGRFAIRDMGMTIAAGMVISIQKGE

[3] = target: T1, Aeropyrum pernix elongation factor …; experiment: as above
[4] = target: T2, Pyrococcus horikoshii elongation factor …; experiment: fluorescence polarisation; FITC-labelled PhoP1C14 with increasing PhoEF1A•GDP complex; same assay as for the GTP complex
[5] = target: T3, PhoEF1A•GTP•PfuPelota complex (P. horikoshii | Pyrococcus furiosus, UniProt O59153 1-428; Q8U150 1-356); experiment: fluorescence polarisation; FITC-labelled peptide (50 nM) with 0-160 µM PhoEF1A•GTP•PfuPelota complex in FP buffer (20 mM HEPES-KOH pH 7.6, 10 mM MgCl2, 150 mM KCl, 0.1 mg/ml BSA), 25 °C; one site specific binding fit
T3 construct: aPelota of Pyrococcus furiosus; Complex of m2 (GTP form) and m3, titrated as a complex in fluorescence polarisation; also called aEF1A•GTP•aPelota; source: E. coli, each protein purified, then complexed with GTP
T3 sequence 1: T2 sequence
T3 sequence 2: B2 chain

Binder | binding result [1] | binding result [2] | other results
B1 | binds | – | –
B2 | – | binds | –
B3 | – | – | binding result [3]: binds
B4 | – | binds | –
B5 | – | – | Kd [4]: 10.4 µM; Kd [5]: 23.6 µM
B6 | binds | – | –
